Tests used:
Details in all cases: protein: recombinant; tags: GST; label: 5' biotin
GST-HuR-RRM1 [1] = target: T1, GST-HuR-RRM1 (UniProt Q15717 20-98); test: EMSA; EMSA: 3 mM MgCl2, 40 mM KCl, 5% glycerol, 2 mM DTT, 2 ug tRNA, 5 nM RNA, 40 min room temperature; pH not stated; 6% native acrylamide gel
GST-HuR = GST-HuR (UniProt Q15717 1-326); test: EMSA; unmodified; multiple shifted bands (oligomer); EMSA: 3 mM MgCl2, 40 mM KCl, 5% glycerol, 2 mM DTT, 2 ug tRNA, 5 nM RNA, 40 min room temperature; pH not stated; 6% native acrylamide gel
GST-HuR-RRM1 [2] = target: T1, GST-HuR-RRM1; test: EMSA; no multiple shifted bands (Fig 4d); EMSA: 3 mM MgCl2, 40 mM KCl, 5% glycerol, 2 mM DTT, 2 ug tRNA, 5 nM RNA, 40 min room temperature; pH not stated; 6% native acrylamide gel

T1 sequence (Q15717 20-98): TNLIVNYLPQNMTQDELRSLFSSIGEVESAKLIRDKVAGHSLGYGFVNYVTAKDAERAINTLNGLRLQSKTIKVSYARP
Sequence of GST-HuR (Q15717 whole entry): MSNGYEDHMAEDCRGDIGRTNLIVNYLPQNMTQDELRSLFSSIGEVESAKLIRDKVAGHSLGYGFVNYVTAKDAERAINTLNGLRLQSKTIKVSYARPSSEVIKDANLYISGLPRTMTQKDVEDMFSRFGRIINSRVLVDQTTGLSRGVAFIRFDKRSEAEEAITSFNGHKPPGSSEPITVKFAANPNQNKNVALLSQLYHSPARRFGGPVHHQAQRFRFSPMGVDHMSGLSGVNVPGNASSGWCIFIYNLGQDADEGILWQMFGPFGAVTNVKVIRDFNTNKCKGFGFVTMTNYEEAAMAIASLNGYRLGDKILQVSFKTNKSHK

Binder	binding result (GST-HuR-RRM1 [1])	binding result (GST-HuR)	binding result (GST-HuR-RRM1 [2])
AUUUAUUUAUUUAUUUAUUUAUUUA (ssRNA) [AU-rich RNA oligo (tandem ARE repeat)]	binds	binds	–
CUAUGUAUUUAUUUAUUUAUUAAUU (ssRNA) [Cxcl2 ARE RNA oligo]	–	binds	binds
